From patent publication US20220064329A1 (Novo Nordisk, published 2022) come the findings set out here.

Usually Kd stands for the free concentration of one partner at which half of the binding sites on the other are occupied at equilibrium, for simple one-to-one binding.

First the molecules themselves.
T1: recombinant human activated Factor VII (FVIIa) (human, UniProt P08709 61-212; P08709 213-466, ten glutamate residues of the Gla domain may be gamma-carboxylated)
T1 construct: chains tethered by a disulfide bond; also called Factor VIIa; rFVIIa
T1 sequence 1: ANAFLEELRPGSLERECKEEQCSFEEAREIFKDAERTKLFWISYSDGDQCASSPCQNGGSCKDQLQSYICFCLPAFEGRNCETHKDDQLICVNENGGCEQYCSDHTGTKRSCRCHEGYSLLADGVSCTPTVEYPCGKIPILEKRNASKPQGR
T1 sequence 2: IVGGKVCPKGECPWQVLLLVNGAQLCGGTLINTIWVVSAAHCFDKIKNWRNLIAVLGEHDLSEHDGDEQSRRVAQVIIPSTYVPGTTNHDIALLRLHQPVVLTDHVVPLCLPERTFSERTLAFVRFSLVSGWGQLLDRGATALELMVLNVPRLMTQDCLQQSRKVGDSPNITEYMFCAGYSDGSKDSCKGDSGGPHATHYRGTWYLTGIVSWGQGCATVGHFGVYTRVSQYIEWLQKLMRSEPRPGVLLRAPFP

B1: VH SEQ ID NO 610 / VL SEQ ID NO 438 (antibody, IgG4, V domains shown)
VH: QVQLQESGPGLVKPSQTLSLTCTVSGGSITSDSAWSWIRQPPGKGLEWIGYIQYSGSTNYNPSLKSRVTISVDTSKNQFSLKLSSVTAADTAVYYCARSVNYYGNSFAVGYWGQGTLVTVSS
VL: EIVLTQSPATLSLSPGERATLSCRASQGVSDYLAWYQQKPGQAPRLLIKYASQPATGIPARFSGSGSGTDFTLTISSLEPEDVAVYYCQNGHSFPLTFGQGTKLEIK
notes: humanized 11F2; IgG4 S228P/kappa
B2: VH SEQ ID NO 610 / VL SEQ ID NO 454 (antibody, IgG4, V domains shown)
VH: QVQLQESGPGLVKPSQTLSLTCTVSGGSITSDSAWSWIRQPPGKGLEWIGYIQYSGSTNYNPSLKSRVTISVDTSKNQFSLKLSSVTAADTAVYYCARSVNYYGNSFAVGYWGQGTLVTVSS
VL: EIVLTQSPATLSLSPGERATLSCRASQGVSDYLHWYQQKPGEAPRLLIKYASQPATGIPARFSGSGSGTDFTLTISSLEPEDFAVYYCQNGHSFPLTFGQGTKLEIK
notes: as for B1
B3: VH SEQ ID NO 610 / VL SEQ ID NO 486 (antibody, IgG4, V domains shown)
VH: QVQLQESGPGLVKPSQTLSLTCTVSGGSITSDSAWSWIRQPPGKGLEWIGYIQYSGSTNYNPSLKSRVTISVDTSKNQFSLKLSSVTAADTAVYYCARSVNYYGNSFAVGYWGQGTLVTVSS
VL: EIVLTQSPATLSLSPGERATLSCRASQGVSDYLHWYQQKPGQAPRLLIKYASQPATGIPARFSGSGSGTDFTLTISSLEPEDFGVYYCQNGHSFPLTFGQGTKLEIK
notes: as for B1
B4: VH SEQ ID NO 610 / VL SEQ ID NO 462 (antibody, IgG4, V domains shown)
VH: QVQLQESGPGLVKPSQTLSLTCTVSGGSITSDSAWSWIRQPPGKGLEWIGYIQYSGSTNYNPSLKSRVTISVDTSKNQFSLKLSSVTAADTAVYYCARSVNYYGNSFAVGYWGQGTLVTVSS
VL: EIVLTQSPATLSLSPGERATLSCRASQGVSDYLHWYQQKPGQAPRLLIKYASQPATGIPARFSGSGSGTDFTLTISSLEPEDFAVYYCQNGHSFPLTFGAGTKLEIK
notes: as for B1
B5: VH SEQ ID NO 610 / VL SEQ ID NO 494 (antibody, IgG4, V domains shown)
VH: QVQLQESGPGLVKPSQTLSLTCTVSGGSITSDSAWSWIRQPPGKGLEWIGYIQYSGSTNYNPSLKSRVTISVDTSKNQFSLKLSSVTAADTAVYYCARSVNYYGNSFAVGYWGQGTLVTVSS
VL: EIVLTQSPATLSLSPGERATLSCRASQGVSDYLHWYQQKPGQAPRLLIKYASQPATGIPARFSGSGSGTDFTLTISSLEPEDVAVYYCQNGHSFPLTFGQGTKLEIK
notes: as for B1
B6: VH SEQ ID NO 610 / VL SEQ ID NO 478 (antibody, IgG4, V domains shown)
VH: QVQLQESGPGLVKPSQTLSLTCTVSGGSITSDSAWSWIRQPPGKGLEWIGYIQYSGSTNYNPSLKSRVTISVDTSKNQFSLKLSSVTAADTAVYYCARSVNYYGNSFAVGYWGQGTLVTVSS
VL: EIVLTQSPATLSLSPGERATLSCRASQGVSDYLHWYQQKPGQAPRLLIKYASQPATGIPARFSGSGSGTDFTLTISSLEPEDFAVYYCQQGHSFPLTFGQGTKLEIK
notes: as for B1
B7: VH SEQ ID NO 610 / VL SEQ ID NO 446 (antibody, IgG4, V domains shown)
VH: QVQLQESGPGLVKPSQTLSLTCTVSGGSITSDSAWSWIRQPPGKGLEWIGYIQYSGSTNYNPSLKSRVTISVDTSKNQFSLKLSSVTAADTAVYYCARSVNYYGNSFAVGYWGQGTLVTVSS
VL: EIVLTQSPATLSLSPGERATLSCRASQGVSDYLAWYQQKPGQAPRLLIKYTSQPATGIPARFSGSGSGTDFTLTISSLEPEDFAVYYCQNGHSFPLTFGQGTKLEIK
notes: as for B1
B8: VH SEQ ID NO 610 / VL SEQ ID NO 470 (antibody, IgG4, V domains shown)
VH: QVQLQESGPGLVKPSQTLSLTCTVSGGSITSDSAWSWIRQPPGKGLEWIGYIQYSGSTNYNPSLKSRVTISVDTSKNQFSLKLSSVTAADTAVYYCARSVNYYGNSFAVGYWGQGTLVTVSS
VL: EIVLTQSPATLSLSPGERATLSCRASQGVSDYLHWYQQKPGQAPRLLIKYASQPATGIPARFSGSGSGTDFTLTISSLEPEDFAVYYCQNGHSFPLTFGQGTKLEIK
notes: as for B1

The experiment deals with T1, recombinant human activated Factor VII …. Put plainly: BLI (Fortebio).
For B1, the Kd is 620 nM.
In the case of B2 it was 16 nM; in that of B3, 17 nM; in that of B4, 17 nM.
In the case of B5 it was 17 nM.
Next, B6: 33 nM; B7: 49 nM; B8: 16 nM.
